Measured values reported in the supplement of paper PMC9170038.

System: MS2 coat protein
Experiment: apparent KD of MS2 coat protein; higher = weaker reporter binding
Settings: Eterna round: R107
Description: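 RNA-MaP round R107: designed RNA switches with theophylline, tryptophan, arginine or FMN aptamers are transcribed on-chip within common flanks. They are titrated with SNAP-549-labelled MS2 coat protein in RNA-MaP buffer (100 mM Tris pH 7.5, 80 mM KCl, 4 mM MgCl2), without ligand or with the indicated ligand. Median apparent KD per design.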

[1] = input ligand: theophylline 20 uM
[2] = input ligand: theophylline 2 mM
[3] = input ligand: tryptophan 2.4 mM

Row | Sequence | apparent KD of MS2 coat protein (input ligand: arginine 13.2 mM) | apparent KD of MS2 coat protein (input ligand: none) | apparent KD of MS2 coat protein [1] | apparent KD of MS2 coat protein [2] | apparent KD of MS2 coat protein [3]
1 | ACAUUUAACUGAAGGAGCGUGAUAUUUACAUGAGGAUCACCCAUGUCUUUCAUGAUAUAUUCACAGGUAGGUCGCAGACUAAUGA [JR_ExcArginiB_Sub006] | 118 nM | 125 nM | 160 nM | 306 nM | 184 nM
2 | ACCUGCGUUUGAUUCUAUCAGACGCAGGUUCGAGGACCGGUACGGCCGCCACUCGGACAUGAGGAUCACCCAUGUUUGACAUGGG [#04 Exclusion Tryptophan A] | 134 nM | – | 281 nM | 1010 nM | –
3 | ACGACGCAUAGUGAUACCAGUAGAACAUGAGGAUCACCCAUGUCUGUGGCGCACCACCUCUGCCCUUGGCAGCACUAUGCGUCAG [SSTheo B #9] | 12.6 nM | – | 17.4 nM | – | 14.1 nM
4 | ACGAUAGCACAAGAGGAUCACCCUUGUGAUACCAGCCUGGAAACAGGCCCUUGGCAGCACACAAAUAAAUUGUAACUAUCGAAUA [TheoAX5 #MicroSwitchBubble #AlternativeMS2] | 22.5 nM | 23.6 nM | 43.9 nM | 112 nM | 29.3 nM
5 | ACGAUAGGACCUGAGGAACACCCAGGUGAUACCAGCCUGGAAACAGGCCCUUGGCAGCACCAAUACUCCAAUAACCUAUCGAAUA [TheoAX 12 #MicroSwitchBubble #AlternativeMS2] | 141 nM | 547 nM | 521 nM | 366 nM | 518 nM
6 | ACGCUGAUUGAUUACAAUCAGCGAAAAGAUACCAGUGGGUAAUCCCACCCUUGGCAGCUUAAAUAUGAGGAUCACCCAUAUGGUA [TheoAS 18 #MS2Right #BothOrNeither #AlternativeMS2] | 54.6 nM | 108 nM | 155 nM | 412 nM | 86.1 nM
7 | ACUAACUAUAGUGAUACCAGACGUACAUGAGGAUCACCCAUGUUACAUUCUUGGUUAAAAGUCCCUUGGCAGCACGAUAAGUUCG [JR_Nu_ExcTheophyB_Sub025] | 9.7 nM | – | 11.2 nM | – | 10 nM
8 | AGACAUGAGGAUCACCCAUGUAGUACGGAUACCAGAUCCAGAUGUAUCCCUUGGCAGCUGUGGUACAGCGUUACAUCGCUCGUAG [Exclusion - Theophylline A (Freestyle 21)] | 10.4 nM | 13.3 nM | 18.4 nM | 16.6 nM | 16.2 nM
9 | AGAGCAUUGACGGCCGCCACUCAUGUCACAUGAGGAUCACCCAUGUGAUGGGUAAUCGCCCGGUUGAGGACCGGGUCAAUGCUCA [Omei Tryp SS B v3] | 6.69 nM | 6.99 nM | 16.9 nM | 8.46 nM | 10.7 nM
10 | AGAGUCAGACAAAAGUCUGGCUCAACCGAAGGAGCGUCCGAAAGGACAGGUAGGUCGCGGUUACCUGAGGAUCACCCGGGUUCCU [ArgAS 9 #OpenEnded #AlternativeMS2] | 100 nM | 65 nM | 110 nM | 1040 nM | 659 nM
11 | AGAGUCUAGUCGGCCGCCACUCAUGUCCAAAGGACAUGAGGAUCACCCAUGUACCUAAGGUACAUGAGGACCGGGACUGGACUCA [Omei Tryp B SS C v5] | 13.1 nM | 24.4 nM | 131 nM | 336 nM | 7.92 nM
12 | AGAGUUAGACAAAAGUCUAGCUCACCAGAAGGAGCGUCCGAAAGGACAGGUAGGUCGCUGGUACGUGAGGAUCACCCACGUUCCU [ArgAS 18 #OpenEnded #AlternativeMS2] | 21.6 nM | 24.6 nM | 26.3 nM | 28.4 nM | 23.1 nM
13 | AGAUAACAUGGUUUAAUAAGAUAAACUGAUACCAGUGUAUAUAAUCACCCUUGGCAGCAGCAACAUGAGGAUCACCCAUGUAAUA [JR_SSTheophyA_Sub014] | 14.9 nM | – | 19.6 nM | – | 20.6 nM
14 | AGAUGUAGCGGAAGGAGCGUCAUGAGGAUCACCCAUGACUCCCGUUGUGGGAGUUCCUUAGGUCAGGUAGGUCGCCGUUACGUCA [Omei Arg B SS B v5] | 91.4 nM | 390 nM | 563 nM | 596 nM | 426 nM
15 | AGCACAUGAGGAUCACCCAUGUGAGGUGAUACCAGUGAGAAGAAGCACCCUUGGCAGCACUUGGGUACAUGAGGAUCACCCAUGU [Exclusion Theophylline A GF9] | 47.4 nM | – | 77.8 nM | – | 54.7 nM
16 | AGCACAUGAGGAUCACCCAUGUGUGGGUACCGAGGACCGGUACGGCCGCCACUCGCAGGACAUGAGGAUCACCCAUGUGCCGCCG [SSTA DOUBLE!!! :-D #7] | 19.7 nM | 30.5 nM | 33.2 nM | 41.2 nM | 43.4 nM
17 | AGCAUGUUAGCAGAUACCAGACGUUUUAUGAUCCAUGUAACAUGAGGAUCACCCAUGUAAGUCCCUUGGCAGCUGAAAUAAUGCA [JR_SSTheophyB_Sub011] | 75.7 nM | – | 187 nM | – | 127 nM

Row | Sequence | apparent KD of MS2 coat protein (input ligand: arginine 13.2 mM) | apparent KD of MS2 coat protein (input ligand: none) | apparent KD of MS2 coat protein [1] | apparent KD of MS2 coat protein [2] | apparent KD of MS2 coat protein [3]
18 | AGCAUUGUAACAGAUACCAGACUUUUAAUGCCUCUAAUAACAUGAGGAUCACCCAUGUAUGUCCCUUGGCAGCUGUUAUGAUGCA [JR_ExcTheophyB_Sub008] | 68.1 nM | – | 171 nM | – | 112 nM
19 | AGCCCUGUACUAGAUACCAGCUACAUGAGGAUCACCCAUGUGCGUCAAGACUGACUGUGUAGCCCUUGGCAGCUGCUCGCAUGUA [Exclusion - Theophylline B (Freestyle 2)] | 19.7 nM | – | 29.9 nM | – | 20.9 nM
20 | AGCCUAUUACAUGAGGAUCACCCAUGUGAUACCAGUCAGGAAACUGACCCUUGGCAGCGCAUGAGGAUCACCCAUGCGCUAGGCA [Omei Theo A Exc A v5] | 9.15 nM | – | 12.3 nM | – | 10 nM
21 | AGCGACAUGCGUGAUACCAGCUACAUGAGGAUCACCCAUGUACGUCAGAAAUGACUGUGUAGCCCUUGGCAGCAUAAUGCAUGUC [Exclusion - Theophylline B (Freestyle 19)] | 38.3 nM | – | 60.6 nM | – | 44 nM
22 | AGCGACAUGCGUGAUACCAGCUACAUGAGGAUCACCCAUGUCAGCAGGAAACUGCUGUGUAGCCCUUGGCAGCACAGUGCAUGUC [Exclusion - Theophylline B (Freestyle 28)] | 12.9 nM | – | 18.1 nM | – | 13.8 nM
23 | AGCGCAGGUCCUGAUACCAGUGACAUGAGGAUCACCCAUGUCCGAUGGGCCUGCCUCUGACACCCUUGGCAGCAGGGCUUGUGCU [#14 Exclusion-TheophyllineB] | 20 nM | – | 49.8 nM | – | 21.3 nM
24 | AGCUACUCGUUCCUCAUGUACGAGUGGCAACGAGGACCGGUACGGCCGCCACUCGAAUAAACAUGAGGAUCACCCAUGUACAAAU [T''-M-T'-T-MS2 - Design 8] | 42.9 nM | – | 168 nM | 179 nM | –
25 | AGGACGGUCGGAAGGAGCGGUACAUGAGGAUCACCCAUGUACUUCUGGGCAUCCGUAGAGUGCCAGGUAGGUCGCCGAUUGCGGG [XArg-B10] | 16.4 nM | 9.36 nM | 17.5 nM | 10.6 nM | 12.9 nM
26 | AGGGAAUGAAUAGAAUGAGAUGACACAGAAGGAGCGCCGAUUAAGGCAGGUAGGUCGCUGACAACAUGAGGAUCACCCAUGUUAA [#11 Same State - Arginine A] | 8.73 nM | 17 nM | 14.1 nM | 17.5 nM | 20.6 nM
27 | AGUAACAUGAGGAUCACCCAUGUAUGAGAAGGAGCGUGUUUUAACACAGGUAGGUCGCUCAAUAUUAAUUUAUUAGAUACAUUUA [JR_SSArginiA_Sub006] | 18.9 nM | 27 nM | 45.1 nM | 36.8 nM | 34.3 nM
28 | AGUACAUGAGGAUCACCCAUGUGCCGGUAACGAGGACCGGUACGGCCGCCACUCGAUGUACCUCAAUUUGAUUGAGAUAAGAAAA [Anorbian] | 34.2 nM | – | 57.6 nM | 47.4 nM | –
29 | AGUAUCAGUGGAAGGAGCGUCGCGAAUGCCACAUGAGGAUCACCCAUGUCGCCUUGAGCGCGACAGGUAGGUCGCCACGGUAGGC [SS-ArgB3] | 53.2 nM | 208 nM | 174 nM | 338 nM | 140 nM
30 | AGUAUUGGAAACAGUACUAGUGAUCCGGUCCGAGGACCGGUACGGCCGCCACUCGAUUUAAAUAAACAUGAGGAUCACCCAUGUA [Ex Tryptophan A 14] | 15.8 nM | – | 17.2 nM | 16.5 nM | –
31 | AGUCACAUGAGGAUCACCCAUGUGCCAGAACGAGGACCGGUACGGCCGCCACUCGAGGCGUCCGUCGACAAUAAUGUGAACUGCA [theeternabot_sameState_MS2_Trp_A_48] | 11.1 nM | – | 16.7 nM | 11.6 nM | –
32 | AGUCUGGACUCGGCCGCCACUCGUGAUGCUUUGGCACAUGAGGAUCACCCAUGUGGUCGGCCUUAGAGGACCGGGAGUACCAGUC [Ariaredle] | 52.3 nM | – | 84.9 nM | 63.5 nM | –
33 | AGUCUUAUAGGAAGGAGCGCAAUCAUCACAUGAGGAUCACCCAUGUCAAGGUGAGAGUCAUUGCAGGUAGGUCGCCUAACUAAGA [Same State - Arginine B (Freestyle 9)] | 150 nM | 241 nM | 173 nM | 251 nM | 213 nM
34 | AGUGUUAUAACUGAUACCAGACCUUUGCUUAUACAUGAGGAUCACCCAUGUAAAAUGGCGGUCCCUUGGCAGCAGAGAAUACGCA [#09 Same State - Theophylline B] | 52.2 nM | – | 57 nM | – | 60.1 nM
